The experiment has as its target T1, 重组蛋白BontB(B型肉毒毒素轻链) (肉毒梭菌 (Clostridium botulinum), UniProt P10844 1-441).
T1 sequence: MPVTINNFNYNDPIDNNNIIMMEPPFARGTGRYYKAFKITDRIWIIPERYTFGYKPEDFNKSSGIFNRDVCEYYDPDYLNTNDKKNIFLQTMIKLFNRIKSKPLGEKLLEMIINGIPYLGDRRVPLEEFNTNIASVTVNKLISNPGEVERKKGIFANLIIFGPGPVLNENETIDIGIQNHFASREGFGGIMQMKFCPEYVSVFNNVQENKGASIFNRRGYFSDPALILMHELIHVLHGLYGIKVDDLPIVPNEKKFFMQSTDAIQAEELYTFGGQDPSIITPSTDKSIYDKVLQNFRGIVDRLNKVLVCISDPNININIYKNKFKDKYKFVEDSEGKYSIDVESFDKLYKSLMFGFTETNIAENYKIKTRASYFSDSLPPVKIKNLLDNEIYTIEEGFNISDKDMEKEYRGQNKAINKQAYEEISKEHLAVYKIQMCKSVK

B1: 3A-scFv (scFv)
scFv: EVQLLESGGGLVQPGGSLRLSCAASGFTFSSYAMSWVRQAPGKGLEWVSNISSNGNATAYADSVKGRFTISRNNSKNTLYLQMNSLRAEDTAVYYCAKYTYAFDYWGQGTLVTVSSGGGGSGGGGSGGGGSTDIQMTQSPSSLSASVGDRVTITCRASQSISSYLNWYQQKPGKAPKLLIYYASNLQSGVPSRFSGSGSGTDFTLTISSLQPEDFATYYCQQDSYTPSTFGQGTKVEIKRAAAHHHHHHGAAEQKLISEEDLNGAA
B1 returned a Ka of 535000 M⁻¹.

B2: 4C-scFv (scFv)
scFv: EVQLLESGGGLVQPGGSLRLSCAASGFTFSSYAMSWVRQAPGKGLEWVSGISPMGTRTSYADSVKGRFTISRDNSKNTLYLQMNSLRAEDTAVYYCAKNANGFDYWGQGTLVTVSSGGGGSGGGGSGGGGSTDIQMTQSPSSLSASVGDRVTITCRASQSISSYLNWYQQKPGKAPKLLIYRASVLQSGVPSRFSGSGSGETDFTLTISSLQPEDFATYYCQQRSRPPITFGQGTKVEIKRAAAHHHHHHGAAEQKLISEEDLNGAA
Regarding B2, the Ka was found to be 438000 M⁻¹.

B3: 抗B型肉毒毒素酶活性的人源单链抗体2F-scFv (scFv)
scFv: EVQLLESGGGLVQPGGSLRLSCAASGFTFSSYAMSWVRQAPGKGLEWVSSIASTGSNTAYADSVKGRFTISRNNSKNTLYLQMNSLRAEDTAVYYCAKGTGTFDYWGQGTLVTVSSGGGGSGGGGSGGGGSTDIQMTQSPSSLSASVGDRVTITCRASQSISSYLNWYQQKPGKAPKLLIYTASYLQSGVPSRFSGSGSGTDFTLTISSLQPEDFATYYCQQATTSPYTFGQGTKVEIKRAAAHHHHHHGAEQKLISEEDLNGAA
For the molecule B3, the Ka worked out at 1.15e+06 M⁻¹.

The values above are taken from patent CN104892754A (INST OF MILITARY VETERINARY ACADEMY OF MILITARY MEDICAL …, dated 2015).
